For this data set, the system named is Saccharomyces cerevisiae. Put plainly: protein stability index of tFT-peptide fusion (C-terminal peptide) (PSI (0-1 scale)); higher = more stable (slower turnover). Particulars: temperature: 30 C. Here is the method: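 MPS profiling in S. cerevisiae of the yeast C-terminome library: the last 12 aa of each annotated ORF are fused to the C-terminus of a sfGFP-mCherry timer, after a GGGS linker. Cells are FACS-sorted into 8 mCherry/sfGFP bins and deep-sequenced. PSI runs from 0 (unstable) to 1 (stable); wild type and das1Δ backgrounds, two technical replicates each.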

[1] abbreviates: genetic background: das1 deletion.

± gives the standard deviation of the averaged measurements.

Take QYMTSGYASNWN [YAR061W C-terminal 12 aa]: the protein stability index was 0.715 ± 0.11 under setting [1] and 0.754 ± 0.096 (genetic background: wild type).
In the case of QYQHQHQQDPRT [NAF1 C-terminal 12 aa], the protein stability index turned out to be 0.701 ± 0.014 under setting [1] and 0.728 ± 0.049 (genetic background: wild type).
The like results for RATLNSVNSFLM [RIT1 C-terminal 12 aa] were, in that order, 0.681 ± 0.013 and 0.673 ± 0.023.
Taken in the same sequence, the figures for RAVSGVELRIYV [POP7 C-terminal 12 aa] were 0.644 ± 0.012 and 0.641 ± 0.017.
Taken in the same sequence, the figures for “RAVTNRSSCSRR [YCR038W-A C-terminal 12 aa]” were 0.697 ± 0.011 and 0.689 ± 0.0074.
Turning to RDAEILAKIAKD [HSP10 C-terminal 12 aa], the protein stability index by setting is: under setting [1], 0.683 ± 0.021; (genetic background: wild type) 0.677 ± 0.0077.
The like results for RDMVELMKFYEL [HOS1 C-terminal 12 aa] were, in that order, 0.715 ± 0.0096 and 0.6886 ± 0.0047.
Taken in the same sequence, the figures for RDVLDDGSNIMS [IAH1 C-terminal 12 aa] were 0.6824 ± 0.0049 and 0.7 ± 0.0082.
Taken in the same sequence, the figures for REITKCKQIFHK [PTR3 C-terminal 12 aa] were 0.691 ± 0.02 and 0.686 ± 0.028.
Take REWFDIELNFSK [PMT4 C-terminal 12 aa]: the protein stability index reads like this: under setting [1], 0.7467 ± 0.0068; (genetic background: wild type) 0.73 ± 0.024.
RGENGQFWIGTK [BNI5 C-terminal 12 aa]: the protein stability index under setting [1] was 0.744 ± 0.027 and the protein stability index (genetic background: wild type) came to 0.702 ± 0.03.
The like results for RGIAAIRESLSN [YIR042C C-terminal 12 aa] were, in that order, 0.6681 ± 0.006 and 0.697 ± 0.02.
Taken in the same sequence, the figures for RHELQALQAEIN [END3 C-terminal 12 aa] were 0.715 ± 0.018 and 0.614 ± 0.018.
Consider RHRKSEDRSLEA [ATR2 C-terminal 12 aa], for which the protein stability index is, setting by setting: under setting [1], 0.706 ± 0.029; (genetic background: wild type) 0.703 ± 0.062.
The like results for RIAAGDGDDDDE [QCR9 C-terminal 12 aa] were, in that order, 0.7068 ± 0.0027 and 0.674 ± 0.041.
Consider RIEQNRPDDGVY [FMP16 C-terminal 12 aa], for which the protein stability index is, setting by setting: under setting [1], 0.682 ± 0.068; (genetic background: wild type) 0.65 ± 0.017.
Take RIYHVYGRFLIH [NCA2 C-terminal 12 aa]: the protein stability index came out at 0.671 ± 0.027 under setting [1] and 0.404 ± 0.027 (genetic background: wild type).
Consider “RKCRVYVIQDAF [YER084W-A C-terminal 12 aa]”, for which the protein stability index runs as follows: under setting [1], 0.6849 ± 0.0056; (genetic background: wild type) 0.67829 ± 0.00013.
Taken in the same sequence, the figures for RKFHVVDTSLFA [MOG1 C-terminal 12 aa] were 0.688 ± 0.01 and 0.688 ± 0.05.
Taken in the same sequence, the figures for RKSKKDTDSDSD [BMT5 C-terminal 12 aa] were 0.7 ± 0.023 and 0.695 ± 0.055.
The like results for RKTIRRDLASLV [TMA108 C-terminal 12 aa] were, in that order, 0.691 ± 0.01 and 0.571 ± 0.031.
For RLEKEAKIKQEE [CDC11 C-terminal 12 aa], the protein stability index runs as follows: under setting [1], 0.6967 ± 0.0039; (genetic background: wild type) 0.678 ± 0.032.
In turn, RLGLDWQPDSVS [MTH1 C-terminal 12 aa] came in with a protein stability index under setting [1] of 0.695 ± 0.01 and a protein stability index (genetic background: wild type) of 0.686 ± 0.039.
On to “RLLGPCFKTGGI [YLR154W-B C-terminal 12 aa]”, for which the protein stability index by setting is: under setting [1], 0.696 ± 0.0085; (genetic background: wild type) 0.675 ± 0.043.
Taken in the same sequence, the figures for RLNKLEAVLQTL [PML39 C-terminal 12 aa] were 0.685 ± 0.033 and 0.72 ± 0.011.
Turning to RLSMLRPPSSSS [RSC2 C-terminal 12 aa], the protein stability index runs as follows: under setting [1], 0.7185 ± 0.0066; (genetic background: wild type) 0.7059 ± 0.0021.
Turning to RMHRRLPFPTLN [YJR142W C-terminal 12 aa], the protein stability index is 0.699 ± 0.025 under setting [1] and 0.548 ± 0.013 (genetic background: wild type).
The sequence “RNNEHSHKKYNQ [YER090C-A C-terminal 12 aa]” returned a protein stability index under setting [1] of 0.711 ± 0.0081 and a protein stability index (genetic background: wild type) of 0.729 ± 0.092.
Turning to RRAAIHPYFQES [CDC28 C-terminal 12 aa], the protein stability index is, setting by setting: under setting [1], 0.729 ± 0.013; (genetic background: wild type) 0.687 ± 0.015.
With “RRHFSERRLENK [YPR074W-A C-terminal 12 aa]”, the protein stability index is, setting by setting: under setting [1], 0.684 ± 0.022; (genetic background: wild type) 0.73 ± 0.025.
Regarding RRPSSTSQYLIR [CDC20 C-terminal 12 aa], the protein stability index under setting [1] is 0.692 ± 0.01 and the protein stability index (genetic background: wild type) is 0.679 ± 0.038.
Taken in the same sequence, the figures for RSNEEMYSWSRN [SPO74 C-terminal 12 aa] were 0.698 ± 0.039 and 0.692 ± 0.0082.
The like results for RTQGEGQGSMFR [TAF11 C-terminal 12 aa] were, in that order, 0.7233 ± 0.0027 and 0.6719 ± 0.0047.
As to RTRPPTAVAHIA [DUG3 C-terminal 12 aa], the protein stability index by setting is: under setting [1], 0.6938 ± 0.0057; (genetic background: wild type) 0.337 ± 0.0086.
Taken in the same sequence, the figures for RTTFRTLSSYGK [YHL041W C-terminal 12 aa] were 0.713 ± 0.0099 and 0.648 ± 0.037.
Taken in the same sequence, the figures for RTTGHNLKQDFN [BUD4 C-terminal 12 aa] were 0.696 ± 0.022 and 0.653 ± 0.017.
The like results for RVVDLVEHVAKA [TDH2 C-terminal 12 aa] were, in that order, 0.705 ± 0.026 and 0.6748 ± 0.0044.
As for RVYTEQNVPVVS [YNL194C C-terminal 12 aa], the protein stability index is, setting by setting: under setting [1], 0.6679 ± 0.0046; (genetic background: wild type) 0.684 ± 0.039.
RWELVRESWREL [HSV2 C-terminal 12 aa]: the protein stability index runs as follows: under setting [1], 0.703 ± 0.03; (genetic background: wild type) 0.786 ± 0.086.
Turning to RYENFINMARHK [YOR097C C-terminal 12 aa], the protein stability index under setting [1] worked out at 0.816 ± 0.054.
As for SAIADDDEEHKE [LHP1 C-terminal 12 aa], the protein stability index under setting [1] was 0.7103 ± 0.0044 and the protein stability index (genetic background: wild type) was 0.678 ± 0.051.
Consider SAIEEGISLNKG [TEL2 C-terminal 12 aa], for which the protein stability index under setting [1] stood at 0.7058 ± 0.0048 and the protein stability index (genetic background: wild type) amounted to 0.701 ± 0.012.
Consider SAQRDRRYRKRN [RPS17B C-terminal 12 aa], for which the protein stability index was 0.721 ± 0.049 under setting [1] and 0.649 ± 0.018 (genetic background: wild type).
Taken in the same sequence, the figures for SATFTSDHIGHI [RIM21 C-terminal 12 aa] were 0.7167 ± 0.0052 and 0.685 ± 0.042.
As to SDEFVDASEYKD [UTP9 C-terminal 12 aa], the protein stability index turned out to be 0.7 ± 0.044 under setting [1] and 0.6722 ± 0.0063 (genetic background: wild type).
The like results for SDELSRNFDSQG [VPS3 C-terminal 12 aa] were, in that order, 0.705 ± 0.017 and 0.726 ± 0.015.
Regarding SDVAKQLAALGY [RPL16A C-terminal 12 aa], the protein stability index is, setting by setting: under setting [1], 0.698 ± 0.024; (genetic background: wild type) 0.677 ± 0.012.
The like results for SETIEELLKEVE [HYR1 C-terminal 12 aa] were, in that order, 0.708 ± 0.0081 and 0.7 ± 0.015.
Taken in the same sequence, the figures for SFDVLAKVPNAA [RPA190 C-terminal 12 aa] were 0.692 ± 0.011 and 0.655 ± 0.011.
The like results for SFNEVVKEVQAL [NHP2 C-terminal 12 aa] were, in that order, 0.687 ± 0.017 and 0.692 ± 0.019.
As to SFRLTKRQTDND [POS5 C-terminal 12 aa], the protein stability index amounted to 0.7021 ± 0.0053 under setting [1] and 0.709 ± 0.033 (genetic background: wild type).
The like results for SFSYLWRNFGFI [PDR18 C-terminal 12 aa] were, in that order, 0.7475 ± 0.0067 and 0.716 ± 0.027.
In the case of SGAGARGSSAAA [LYS2 C-terminal 12 aa], the protein stability index came to 0.702 ± 0.011 under setting [1] and 0.676 ± 0.032 (genetic background: wild type).
The like results for SGPSAMTKFGPR [ARP2 C-terminal 12 aa] were, in that order, 0.69 ± 0.032 and 0.6842 ± 0.0042.
Taken in the same sequence, the figures for SIDQFRGKLNSI [URA1 C-terminal 12 aa] were 0.701 ± 0.015 and 0.688 ± 0.013.
Take SIFIASLLLAIV [FLO10 C-terminal 12 aa]: the protein stability index reads like this: under setting [1], 0.226 ± 0.0053; (genetic background: wild type) 0.237 ± 0.0032.
The like results for SILRIDDIAFSR [CCT4 C-terminal 12 aa] were, in that order, 0.739 ± 0.033 and 0.71 ± 0.034.
Taken in the same sequence, the figures for SIYILNVIRNAQ [YGR117C C-terminal 12 aa] were 0.6687 ± 0.0012 and 0.538 ± 0.0088.
For SKEKARALGSNF [GTT1 C-terminal 12 aa], the protein stability index is, setting by setting: under setting [1], 0.712 ± 0.016; (genetic background: wild type) 0.686 ± 0.013.
Taken in the same sequence, the figures for SKGSPINTQYVF [AGA2 C-terminal 12 aa] were 0.731 ± 0.02 and 0.732 ± 0.056.
Regarding SKKTTISAKKQQ [SGE1 C-terminal 12 aa], the protein stability index by setting is: under setting [1], 0.713 ± 0.014; (genetic background: wild type) 0.51092 ± 0.00037.
Taken in the same sequence, the figures for SKQEKPLSRPKD [GPI15 C-terminal 12 aa] were 0.718 ± 0.013 and 0.684 ± 0.022.
The like results for SKSFPTAGEMRA [PET8 C-terminal 12 aa] were, in that order, 0.711 ± 0.035 and 0.7283 ± 0.0038.
Taken in the same sequence, the figures for SKTSHNPNEQSV [PDR11 C-terminal 12 aa] were 0.6953 ± 0.0037 and 0.687 ± 0.025.
Turning to SKYNCNIPACCV [YLR122C C-terminal 12 aa], the protein stability index was 0.654 ± 0.017 under setting [1] and 0.6636 ± 0.0051 (genetic background: wild type).
On to SLDGDTYFIIRS [YDL158C C-terminal 12 aa], for which the protein stability index by setting is: under setting [1], 0.713 ± 0.024; (genetic background: wild type) 0.688 ± 0.033.
In the case of SLRIEAIKKGFV [SPS1 C-terminal 12 aa], the protein stability index under setting [1] came to 0.727 ± 0.048 and the protein stability index (genetic background: wild type) was determined as 0.675 ± 0.029.
The like results for SMDEEFKNMDCI [SIR3 C-terminal 12 aa] were, in that order, 0.706 ± 0.0084 and 0.701 ± 0.05.

Source of the values: the supplement of paper PMC10724198.
